Measurements published in US20210380703A1.

target: Human Fc (human); experiment: ELISA, negative control

Row | optical density | Binder
1 | 0.393 OD | 370_G09 (antibody, V domains shown) VH: EVQLLESGGGLVQPGGSLRLSCAASGFTFSSYGMNWVRQAPGKGLEWVAGINYNGGYKSYADSVKGRFTISRDNSKNTLYLQMNSLRAEDTAVYYCARSANWHDTALDYWGQGTLVTVSS VL: DIQMTQSPSSLSASVGDRVTITCRASQSILSYVNWYQQKPGKAPKLVIYAATSRASGVPSRFSGSGSGTDFTLTISSLQPEDFATYYCQQSYESPLTFGGGTKVEIK
2 | 0.336 OD | 371_A07 (antibody, V domains shown) VH: EVQLLESGGGLVQPGGSLRLSCAASGFTFSDYSMNWVRQAPGKGLEWVSNINYNGGYKSYADSVKGRFTISRDNSKNTLYLQMNSLRAEDTAVYYCARSANWHDTALDYWGQGTLVTVSS VL: DIQMTQSPSSLSASVGDRVTITCRASQSILSYLNWYQQKPGKAPKLVIYATTSRASGVPSRFSGSGSGTDFTLTISSLQPEDFATYYCQQSYDLPLTFGGGTKVEIK
3 | 0.315 OD | 370_G10 (antibody, V domains shown) VH: EVQLLESGGGLVQPGGSLRLSCAASGFTFSDYGMNWVRQAPGKGLEWVSGINYNSGYTSYADSVKGRFTISRDNSKNTLYLQMNSLRAEDTAVYYCARSANWHDTALDYWGQGTLVTVSS VL: DIQMTQSPSSLSASVGDRVTITCRASQSISSYLNWYQQKPGKAPKLLIYVVNNRASGVPSRFSGSGSGTDFTLTISSLQPEDFATYYCQQSYENPLTFGGGTKVEIK
4 | 0.337 OD | 371_A06 (antibody, V domains shown) VH: EVQLLESGGGLVQPGGSLRLSCAASGFTFSSYGMNWVRQAPGKGLEWVAGINYNGGYTSYADSVKGRFTISRDNSKNTLYLQMNSLRAEDTAVYYCARSANWHDTALDYWGQGTLVTVSS VL: DIQMTQSPSSLSASVGDRVTITCRASQSILTYLNWYQQKPGKAPKLVIYAATSRHSGVPSRFSGSGSGTDFTLTISSLQPEDFATYYCQQSYDSPLTFGGGTKVEIK
5 | 0.356 OD | 371_B06 (antibody, V domains shown) VH: EVQLLESGGGLVQPGGSLRLSCAASGFTFDSYSMNWVRQAPGKGLEWVAGINYNGGYKSYADSVKGRFTISRDNSKNTLYLQMNSLRAEDTAVYYCARSANWHDTALDYWGQGTLVTVSS VL: DIQMTQSPSSLSASVGDRVTITCRASQSILTYVNWYQQKPGKAPKLVIYAATSRHSGVPSRFSGSGSGTDFTLTISSLQPEDFATYYCQQSYNLPLTFGGGTKVEIK
6 | 0.529 OD | 370_G11 (antibody, V domains shown) VH: EVQLLESGGGLVQPGGSLRLSCAASGFTFSSYSMNWVRQAPGKGLEWVASINYNSGYTSYADSVKGRFTISRDNSKNTLYLQMNSLRAEDTAVYYCARSANWHDTHLDYWGQGTLVTVSS VL: DIQMTQSPSSLSASVGDRVTITCRASQSIVSYLNWYQQKPGKAPKLVIYAATSRASGVPSRFSGSGSGTDFTLTISSLQPEDFATYYCQQSYSLPLTFGGGTKVEIK
7 | 0.354 OD | 371_A03 (antibody, V domains shown) VH: EVQLLESGGGLVQPGGSLRLSCAASGFTFSDYGMNWVRQAPGKGLEWVANINYNGGYTGYADSVKGRFTISRDNSKNTLYLQMNSLRAEDTAVYYCARSANWHDTALDYWGQGTLVTVSS VL: DIQMTQSPSSLSASVGDRVTITCRASQSILSYLNWYQQKPGKAPKLVIYATTSRASGVPSRFSGSGSGTDFTLTISSLQPEDFATYYCQQSYESPLTFGGGTKVEIK
8 | 0.304 OD | 371_A08 (antibody, V domains shown) VH: EVQLLESGGGLVQPGGSLRLSCAASGFTFSSYGMHWVRQAPGKGLEWVSSINYNGGYTSYADSVKGRFTISRDNSKNTLYLQMNSLRAEDTAVYYCARSANWHDTALDYWGQGTLVTVSS VL: DIQMTQSPSSLSASVGDRVTITCRASQSILSYLNWYQQKPGKAPKLVIYAATSRASGVPSRFSGSGSGTDFTLTISSLQPEDFATYYCQQSYELPLTFGGGTKVEIK
9 | 0.348 OD | 370_H09 (antibody, V domains shown) VH: EVQLLESGGGLVQPGGSLRLSCAASGFTFSSYGMNWVRQAPGKGLEWVANINYNGGYTSYADSVKGRFTISRDNSKNTLYLQMNSLRAEDTAVYYCARSANWHDTALDYWGQGTLVTVSS VL: DIQMTQSPSSLSASVGDRVTITCRASQSIVSYVNWYQQKPGKAPKLLIYAATSRASGVPSRFSGSGSGTDFTLTISSLQPEDFATYYCQQSYDNPLTFGGGTKVEIK
10 | 0.483 OD | 371_A12 (antibody, V domains shown) VH: EVQLLESGGGLVQPGGSLRLSCAASGFTFDSYSMNWVRQAPGKGLEWVAGINYNSGYTSYADSVKGRFTISRDNSKNTLYLQMNSLRAEDTAVYYCARSANWHDTALDYWGQGTLVTVSS VL: DIQMTQSPSSLSASVGDRVTITCRASQSILSYVNWYQQKPGKAPKLVIYAATSLASGVPSRFSGSGSGTDFTLTISSLQPEDFATYYCQQSYDTPLTFGGGTKVEIK
11 | 0.436 OD | 370_H01 (antibody, V domains shown) VH: EVQLLESGGGLVQPGGSLRLSCAASGFTFSSYSMNWVRQAPGKGLEWVSGINYNSGYKGYADSVKGRFTISRDNSKNTLYLQMNSLRAEDTAVYYCARSANWHDTALDYWGQGTLVTVSS VL: DIQMTQSPSSLSASVGDRVTITCRASQSIISYLNWYQQKPGKAPKLLIYAVTSRASGVPSRFSGSGSGTDFTLTISSLQPEDFATYYCQQSYDTPLTFGGGTKVEIK

Second part, the binder before the results:

Row | Binder | optical density
12 | 370_D04 (antibody, V domains shown) VH: EVQLLESGGGLVQPGGSLRLSCAASGFTFDSYSMNWVRQAPGKGLEWVANINYNSGYKGYADSVKGRFTISRDNSKNTLYLQMNSLRAEDTAVYYCARSANWHDTALDYWGQGTLVTVSS VL: DIQMTQSPSSLSASVGDRVTITCRASQSILTYLNWYQQKPGKAPKLVIYAATSRASGVPSRFSGSGSGTDFTLTISSLQPEDFATYYCQQSYDNPLTFGGGTKVEIK | 0.371 OD
13 | 370_G06 (antibody, V domains shown) VH: EVQLLESGGGLVQPGGSLRLSCAASGFTFSDYGMHWVRQAPGKGLEWVSSINYNGGYTSYADSVKGRFTISRDNSKNTLYLQMNSLRAEDTAVYYCARSANWHDTALDYWGQGTLVTVSS VL: DIQMTQSPSSLSASVGDRVTITCRASQSILSYVNWYQQKPGKAPKLVIYAATSRASGVPSRFSGSGSGTDFTLTISSLQPEDFATYYCQQSDNTPLTFGGGTKVEIK | 0.356 OD
14 | 370_G02 (antibody, V domains shown) VH: EVQLLESGGGLVQPGGSLRLSCAASGFTFSDYSMNWVRQAPGKGLEWVANINYNGGYKGYADSVKGRFTISRDNSKNTLYLQMNSLRAEDTAVYYCARSANWHDTALDYWGQGTLVTVSS VL: DIQMTQSPSSLSASVGDRVTITCRASQSIVSYLNWYQQKPGKAPKLLIYAATSRHSGVPSRFSGSGSGTDFTLTISSLQPEDFATYYCQQSYDSPLTFGGGTKVEIK | 0.388 OD
15 | 370_F07 (antibody, V domains shown) VH: EVQLLESGGGLVQPGGSLRLSCAASGFTFDSYSMNWVRQAPGKGLEWVSNINYNGGYKGYADSVKGRFTISRDNSKNTLYLQMNSLRAEDTAVYYCARSANWHDTALDYWGQGTLVTVSS VL: DIQMTQSPSSLSASVGDRVTITCRASQSILSYLNWYQQKPGKAPKLLIYAATSRASGVPSRFSGSGSGTDFTLTISSLQPEDFATYYCQQSYNLPLTFGGGTKVEIK | 0.384 OD
16 | 370_F05 (antibody, V domains shown) VH: EVQLLESGGGLVQPGGSLRLSCAASGFTFSSYGMNWVRQAPGKGLEWVSGINYNSGYTSYADSVKGRFTISRDNSKNTLYLQMNSLRAEDTAVYYCARSANWHDTALDYWGQGTLVTVSS VL: DIQMTQSPSSLSASVGDRVTITCRASQSIVSYVNWYQQKPGKAPKLVIYAATSRASGVPSRFSGSGSGTDFTLTISSLQPEDFATYYCQQSYETPLTFGGGTKVEIK | 0.406 OD
17 | 370_E03 (antibody, V domains shown) VH: EVQLLESGGGLVQPGGSLRLSCAASGFTFSSYGMNWVRQAPGKGLEWVSSINYNGGYKGYADSVKGRFTISRDNSKNTLYLQMNSLRAEDTAVYYCARSANWHDTALDYWGQGTLVTVSS VL: DIQMTQSPSSLSASVGDRVTITCRASQSILTYLNWYQQKPGKAPKLVIYYASNRASGVPSRFSGSGSGTDFTLTISSLQPEDFATYYCQQSYDSPLTFGGGTKVEIK | 0.361 OD
18 | 370_G03 (antibody, V domains shown) VH: EVQLLESGGGLVQPGGSLRLSCAASGFTFSSYSMNWVRQAPGKGLEWVANINYNGGYTGYADSVKGRFTISRDNSKNTLYLQMNSLRAEDTAVYYCARSANWHDTALDYWGQGTLVTVSS VL: DIQMTQSPSSLSASVGDRVTITCRASQSILTYVNWYQQKPGKAPKLVIYATTSRASGVPSRFSGSGSGTDFTLTISSLQPEDFATYYCQQSYNNPLTFGGGTKVEIK | 0.421 OD
19 | 370_D11 (antibody, V domains shown) VH: EVQLLESGGGLVQPGGSLRLSCAASGFTFDSYSMNWVRQAPGKGLEWVSGINYNGGYTGYADSVKGRFTISRDNSKNTLYLQMNSLRAEDTAVYYCARSANWHDTALDYWGQGTLVTVSS VL: DIQMTQSPSSLSASVGDRVTITCRASQSIVSYLNWYQQKPGKAPKLLIYAATSRASGVPSRFSGSGSGTDFTLTISSLQPEDFATYYCQQSYDTPLTFGGGTKVEIK | 0.34 OD
20 | 370_E09 (antibody, V domains shown) VH: EVQLLESGGGLVQPGGSLRLSCAASGFTFDDSSMHWVRQAPGKGLEWVSNINYNGGYTGYADSVKGRFTISRDNSKNTLYLQMNSLRAEDTAVYYCAKSANWHDTALDYWGQGTLVTVSS VL: DIQMTQSPSSLSASVGDRVTITCRASQSILSYVNWYQQKPGKAPKLVIYAATSRASGVPSRFSGSGSGTDFTLTISSLQPEDFATYYCQQSYELPLTFGGGTKVEIK | 0.338 OD
21 | 370_F10 (antibody, V domains shown) VH: EVQLLESGGGLVQPGGSLRLSCAASGFTFSSYSMNWVRQAPGKGLEWVAGINYNGGYTSYADSVKGRFTISRDNSKNTLYLQMNSLRAEDTAVYYCARSANWHDTALDYWGQGTLVTVSS VL: DIQMTQSPSSLSASVGDRVTITCRASQSIVSYLNWYQQKPGKAPKLVIYAATSRASGVPSRFSGSGSGTDFTLTISSLQPEDFATYYCQQSYNSPLTFGGGTKVEIK | 0.441 OD
22 | 370_E06 (antibody, V domains shown) VH: EVQLLESGGGLVQPGGSLRLSCAASGFTFSSYGMNWVRQAPGKGLEWVSGINYNSGYKSYADSVKGRFTISRDNSKNTLYLQMNSLRAEDTAVYYCARSANWHDTALDYWGQGTLVTVSS VL: DIQMTQSPSSLSASVGDRVTITCRASQSILSYLNWYQQKPGKAPKLVIYATTSLASGVPSRFSGSGSGTDFTLTISSLQPEDFATYYCQQSYDTPLTFGGGTKVEIK | 0.375 OD
